How the values were obtained:
[1] = target: RPABC5, subunit of human RNA polymerase III (human, UniProt P62875 1-67); assay: cryo-EM structure
[2] = target: T1, RPC2, subunit of human RNA polymerase III (human, UniProt Q9NW08 1-1133); assay: cryo-EM structure
T1 sequence: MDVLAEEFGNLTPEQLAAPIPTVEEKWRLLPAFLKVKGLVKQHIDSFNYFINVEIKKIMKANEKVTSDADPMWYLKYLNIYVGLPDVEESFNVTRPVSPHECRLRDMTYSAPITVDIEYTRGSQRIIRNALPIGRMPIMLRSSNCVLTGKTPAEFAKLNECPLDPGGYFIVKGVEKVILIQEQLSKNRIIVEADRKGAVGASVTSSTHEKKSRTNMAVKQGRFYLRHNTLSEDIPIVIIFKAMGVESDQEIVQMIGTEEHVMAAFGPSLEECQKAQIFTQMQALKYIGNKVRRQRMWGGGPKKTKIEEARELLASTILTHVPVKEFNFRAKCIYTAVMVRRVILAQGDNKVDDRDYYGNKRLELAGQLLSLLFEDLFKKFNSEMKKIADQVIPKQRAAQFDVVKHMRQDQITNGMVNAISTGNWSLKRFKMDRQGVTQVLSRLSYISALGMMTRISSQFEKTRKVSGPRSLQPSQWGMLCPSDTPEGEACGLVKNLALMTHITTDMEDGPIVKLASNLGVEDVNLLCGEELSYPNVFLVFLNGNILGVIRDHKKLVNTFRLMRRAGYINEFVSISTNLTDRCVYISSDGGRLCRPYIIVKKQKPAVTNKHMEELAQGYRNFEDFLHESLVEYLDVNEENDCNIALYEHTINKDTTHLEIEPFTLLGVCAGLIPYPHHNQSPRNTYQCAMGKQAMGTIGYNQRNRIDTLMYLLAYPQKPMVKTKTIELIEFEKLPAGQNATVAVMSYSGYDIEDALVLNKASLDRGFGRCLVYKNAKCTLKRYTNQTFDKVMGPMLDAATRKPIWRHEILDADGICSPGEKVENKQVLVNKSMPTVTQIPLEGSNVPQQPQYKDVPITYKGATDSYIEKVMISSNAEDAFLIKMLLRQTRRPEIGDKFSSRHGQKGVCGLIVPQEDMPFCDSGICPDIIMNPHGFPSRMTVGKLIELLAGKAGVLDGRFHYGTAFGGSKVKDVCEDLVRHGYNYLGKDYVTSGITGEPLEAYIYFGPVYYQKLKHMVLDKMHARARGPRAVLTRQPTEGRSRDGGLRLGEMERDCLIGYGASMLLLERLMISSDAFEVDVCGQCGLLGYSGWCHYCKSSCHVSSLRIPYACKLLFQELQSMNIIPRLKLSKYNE

B1: RPC5, subunit of the human RNA polymerase III heterodimer (natural protein)
chain: MANEEDDPVVQEIDVYLAKSLAEKLYLFQYPVRPASMTYDDIPHLSAKIKPKQQKVELEMAIDTLNPNYCRSKGEQIALNVDGACADETSTYSSKLMDKQTFCSSQTTSNTSRYAAALYRQGELHLTPLHGILQLRPSFSYLDKADAKHREREAANEAGDSSQDEAEDDVKQITVRFSRPESEQARQRRVQSYEFLQKKHAEEPWVHLHYYGLRDSRSEHERQYLLCPGSSGVENTELVKSPSEYLMMLMPPSQEEEKDKPVAPSNVLSMAQLRTLPLADQIKILMKNVKVMPFANLMSLLGPSIDSVAVLRGIQKVAMLVQGNWVVKSDILYPKDSSSPHSGVPAEVLCRGRDFVMWKFTQSRWVVRKEVATVTKLCAEDVKDFLEHMAVVRINKGWEFILPYDGEFIKKHPDVVQRQHMLWTGIQAKLEKVYNLVKETMPKKPDAQSGPAGLVCGDQRIQVAKTKAQQNHALLERELQRRKEQLRVPAVPPGVRIKEEPVSEEGEEDEEQEAEEEPMDTSPSGLHSKLANGLPLGRAAGTDSFNGHPPQGCASTPVARELKAFVEATFQRQFVLTLSELKRLFNLHLASLPPGHTLFSGISDRMLQDTVLAAGCKQILVPFPPQTAASPDEQKVFALWESGDMSDQHRQVLLEIFSKNYRVRRNMIQSRLTQECGEDLSKQEVDKVLKDCCVSYGGMWYLKGTVQS
Q: Does B1 bind [1]?
A: Result: binds

Q: Does B1 bind [2]?
A: Result: binds
